From patent US20230382966A1, “NOVEL KLOTHO INTERACTION SITE IN THE C-TERMINUS OF FGF23” (INDIANA UNIVERSITY RESEARCH AND TECHNOLOGY CORPORATION, priority 2020, published 2023)

Tests used:
[1] = tested on: FGF21-signaling in 293/KLB cells; assay: Block of FGF21-signaling in 293/KLB cells; type: cell-based; details: Table 1, FGF21 associated antagonist
Source text: The sequence homology in these endocrine FGF peptides (FGF23^180-205, FGF23^212-239, FGF19^191-216 and FGF21^185-209) is provided in FIG. 2.

FGFR/KL complex = assay: FGF23-signaling activity (stimulation of Erk-phosphorylation) in 293/KL cells; type: cell-based, human; details: for EC50: Table 3, p-Erk
Sequence of FGFR/KL complex (Q9UEF7 34-1012, one chain of several): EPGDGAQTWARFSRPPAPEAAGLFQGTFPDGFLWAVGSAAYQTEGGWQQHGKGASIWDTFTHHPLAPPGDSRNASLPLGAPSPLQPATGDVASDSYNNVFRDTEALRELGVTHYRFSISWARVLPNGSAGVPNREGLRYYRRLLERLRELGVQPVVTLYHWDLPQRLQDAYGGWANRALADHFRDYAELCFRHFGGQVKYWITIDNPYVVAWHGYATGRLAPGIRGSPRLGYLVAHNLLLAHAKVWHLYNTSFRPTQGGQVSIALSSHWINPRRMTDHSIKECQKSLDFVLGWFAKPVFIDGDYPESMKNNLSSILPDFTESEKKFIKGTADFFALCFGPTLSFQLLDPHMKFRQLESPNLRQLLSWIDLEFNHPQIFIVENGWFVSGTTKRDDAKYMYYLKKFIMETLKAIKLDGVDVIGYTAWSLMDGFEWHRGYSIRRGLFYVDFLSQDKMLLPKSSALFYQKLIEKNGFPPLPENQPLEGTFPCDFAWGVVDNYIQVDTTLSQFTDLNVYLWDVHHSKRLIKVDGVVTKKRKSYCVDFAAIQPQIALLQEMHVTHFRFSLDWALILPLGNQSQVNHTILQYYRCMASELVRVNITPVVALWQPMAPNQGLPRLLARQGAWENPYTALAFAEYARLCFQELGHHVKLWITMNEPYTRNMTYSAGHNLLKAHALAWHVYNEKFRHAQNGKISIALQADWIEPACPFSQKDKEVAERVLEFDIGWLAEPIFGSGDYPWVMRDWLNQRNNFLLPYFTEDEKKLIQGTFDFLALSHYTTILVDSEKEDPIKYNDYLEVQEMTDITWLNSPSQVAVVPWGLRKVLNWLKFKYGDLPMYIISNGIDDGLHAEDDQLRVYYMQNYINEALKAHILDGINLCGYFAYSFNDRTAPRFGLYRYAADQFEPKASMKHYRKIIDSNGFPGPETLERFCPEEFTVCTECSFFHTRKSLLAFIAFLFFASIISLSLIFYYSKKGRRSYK
Description: (§1) FIGS. 5A-5D provide data relating to the activities of FGF23-analogs containing one or two active KL-interaction sites by in vitro and in vivo methods. […] FIGS. 5B-5D are scatter plots presenting an in vivo assessment of FGF23-activity in mice. WT mice were treated with 0.5 mg/kg body weight with either FGF23, FGF23 A^188, FGF23 A^222, FGF23 A^188,222, or vehicle, n=5 or 10/group, and post 3-hours the gene expression changes were studied by quantitative real time PCR for target genes, FIG. 5B represents measurement of Cyp24a1, FIG. 5C represents measurement of Cyp27b1, and FIG. 5D represents measurement of Egr1. The data is presented as a scatter plot where each dot represents one animal, mean ±SEM. One-way ANOVA with Tukey's comparison was employed for statistical analyses where***P<0.001 vs. vehicle; #P<0.05, ##P<0.01, ###P<0.001 vs FGF23; and $$$P<0.001 vs FGF23 A^188,222 was calculated.
Whether FGF23-based agonism can employ each of the two KL-interaction sites as witnessed in the C72 peptide antagonist was studied. To do so, a selective mutation at position Asp188 or Asp222 was made in the native FGF23. […] This is consistent with prior reports where C-terminal sequence deletion after residue 205 position had no apparent effect on cellular signaling (FIG. 5A, Table 3). […] Asp188 residue is purported to be singularly essential for KL-binding and FGF23 activity, and its importance was substantiated by the lack of antagonism when the C26 peptide was similarly mutated from Asp to Ala (FIG. 4A). […] To confirm that these observations were not resulting from unexpected changes in higher order structure that was not apparent in biosynthesis, purification, or formulation of the mutant proteins their biophysical integrity were directly assessed by thermal denaturation.
The N-terminal domain of the endocrine FGFs primarily determines the FGFR-activation while the C-terminal sequence guides the co-receptor specificity with a Klotho co-receptor, KL or KLB. The receptor complex specificity among the endocrine FGF-proteins can be modulated by altering their C-terminal domains. Consequently, two FGF21-23 chimeric protein analogs were prepared containing the FGF21 N-terminal core with its C-terminal KLB-binding peptide replaced with an FGF23 C-terminal peptide sequence constituted by C72 (FGF21-23 C72) or C26 (FGF21-23 C26) (Table 3).

[2] = tested on: FGFR/KL-downstream targets Cyp24a1, Cyp27b1 and Egr1; assay: Mouse kidney gene expression after FGF23 protein analogs (quantitative real time PCR); type: in vivo; details: WT mice, 0.5 mg/kg, 3 hours
Description: as §1
To test whether C28 as the second KL-interaction site can promote FGF23 in vivo activity, the single site FGF23-analogs were assessed for their ability to alter kidney gene expression in normal mice. Four proteins (FGF23, FGF23 A188, FGF23 A222 or FGF23 A188, 222 analogs) were each dosed to mice 0.5 mg/kg and 3 hours later quantitative real time PCR was employed to assess kidney mRNA expression of the FGFR/KL-downstream targets Cyp24a1, Cyp27b1 and early growth response protein 1 (Egr1). […] This is not surprising since the optimal treatment time for Egrl modulation is as early as 1 hour for FGF-signaling measurements. The magnitude in upregulation of gene expression for Cyp24a1 was the highest, with twenty-fold induction by native FGF23 treatment (FIG. 5B). […] Similarly, the Egrl induction is reduced for FGF23 A188 and FGF23 A222 analogs as compared to native FGF23 (P<0.05, FIG. 5D), but no difference is observed among the analogs and FGF23 for Cyp27b1 (FIG. 5C).

Molecule | IC50 [1] [nM] | FGF23-type agonism / FGFR/KL activation (in words) (FGFR/KL complex) | EC50 (FGFR/KL complex) [nM] | kidney Cyp24a1 mRNA expression vs vehicle [2] | kidney Cyp27b1 mRNA expression vs vehicle [2] | Egr1 induction as compared to native FGF23 ([2]; kidney) | magnitude of Cyp24a1 effect as compared to native FGF23 ([2]; kidney) | magnitude of upregulation of Cyp24a1 gene expression (induction) ([2]; kidney)
21C25: FGF21 associated antagonist (FGF21^185-209, C25) (PPDVGSSDPLSMVGPSQGRSPSYAS) | 75.2 ± 19 |  |  |  |  |  |  | 
FGF23 A^188: FGF23^25-240, A^188 (protein) YPNASPLLGSSWGGLIHLYTATARNSYHLQIHKNGHVDGAPHQTIYSALMIRSEDAGFVVITGVMSRRYLCMDFRGNIFGSHYFDPENCRFQHQTLENGYDVYHSPQYHFLVSLGRAKRAFLPGMNPPPYSQFLSRRNEIPLIHFNTPIPRRHTRSAEDDSERAPLNVLKPRARMTPAPASCSQELPSAEDNSPMASDPLGVVRGGRVNTHAGGTG |  | retained full potency | 0.28 ± 0.08 | significant elevation | coordinate suppression | reduced | fractionally reduced | 
FGF23: FGF23^25-240, native protein (protein) YPNASPLLGSSWGGLIHLYTATARNSYHLQIHKNGHVDGAPHQTIYSALMIRSEDAGFVVITGVMSRRYLCMDFRGNIFGSHYFDPENCRFQHQTLENGYDVYHSPQYHFLVSLGRAKRAFLPGMNPPPYSQFLSRRNEIPLIHFNTPIPRRHTRSAEDDSERDPLNVLKPRARMTPAPASCSQELPSAEDNSPMASDPLGVVRGGRVNTHAGGTG |  |  | 0.16 ± 0.05 | significant elevation | coordinate suppression |  |  | twenty-fold
FGF23 A^188,222: FGF23^25-240, A^188,222 (protein) YPNASPLLGSSWGGLIHLYTATARNSYHLQIHKNGHVDGAPHQTIYSALMIRSEDAGFVVITGVMSRRYLCMDFRGNIFGSHYFDPENCRFQHQTLENGYDVYHSPQYHFLVSLGRAKRAFLPGMNPPPYSQFLSRRNEIPLIHFNTPIPRRHTRSAEDDSERAPLNVLKPRARMTPAPASCSQELPSAEDNSPMASAPLGVVRGGRVNTHAGGTG |  | bioactivity was abrogated |  | inactive | inactive | statistically different |  | 
